# Source: IntAct's records for PubMed 17641689
# B1: Retinoic acid receptor alpha (Homo sapiens), P10276 (parent)
# chain: MASNSSSCPTPGGGHLNGYPVPPYAFFFPPMLGGLSPPGALTTLQHQLPVSGYSTPSPATIETQSSSSEEIVPSPPSPPPLPRIYKPCFVCQDKSSGYHYGVSACEGCKGFFRRSIQKNMVYTCHRDKNCIINKVTRNRCQYCRLQKCFEVGMSKESVRNDRNKKKKEVPKPECSESYTLTPEVGELIEKVRKAHQETFPALCQLGKYTTNNSSEQRVSLDIDLWDKFSELSTKCIIKTVEFAKQLPGFTTLTIADQITLLKAACLDILILRICTRYTPEQDTMTFSDGLTLNRTQMHNAGFGPLTDLVFAFANQLLPLEMDDAETGLLSAICLICGDRQDLEQPDRVDMLQEPLLEALKVYVRKRRPSRPHMFPKMLMKITDLRSISAKGAERVITLKMEIPGSMPPLIQEMLENSEGLDTLSGQPGGGGRDGGGLAPPPGSCSPSLSPSSNRSSPATHSP
# partner: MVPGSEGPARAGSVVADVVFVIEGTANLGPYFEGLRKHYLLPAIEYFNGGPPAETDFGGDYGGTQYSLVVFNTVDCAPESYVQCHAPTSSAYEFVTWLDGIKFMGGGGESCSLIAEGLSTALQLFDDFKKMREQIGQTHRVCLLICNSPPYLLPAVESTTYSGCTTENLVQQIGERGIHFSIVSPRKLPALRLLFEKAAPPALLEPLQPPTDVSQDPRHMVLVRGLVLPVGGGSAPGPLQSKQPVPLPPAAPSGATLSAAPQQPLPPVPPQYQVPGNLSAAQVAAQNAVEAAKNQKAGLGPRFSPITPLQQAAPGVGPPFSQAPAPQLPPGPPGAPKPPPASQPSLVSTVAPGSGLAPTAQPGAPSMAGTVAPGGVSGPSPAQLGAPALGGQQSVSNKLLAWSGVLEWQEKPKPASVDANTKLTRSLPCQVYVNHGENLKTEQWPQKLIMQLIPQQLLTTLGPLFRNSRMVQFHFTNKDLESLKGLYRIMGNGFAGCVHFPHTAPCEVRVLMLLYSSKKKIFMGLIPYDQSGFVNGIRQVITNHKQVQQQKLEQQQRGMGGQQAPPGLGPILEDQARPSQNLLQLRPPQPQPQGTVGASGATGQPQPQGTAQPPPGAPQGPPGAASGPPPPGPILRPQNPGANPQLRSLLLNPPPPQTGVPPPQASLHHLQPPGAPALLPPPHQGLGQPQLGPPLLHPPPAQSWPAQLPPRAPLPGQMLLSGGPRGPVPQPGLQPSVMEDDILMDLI
# B2: Retinoic acid receptor RXR-alpha (Mus musculus), P28700 (parent)
# chain: MDTKHFLPLDFSTQVNSSSLNSPTGRGSMAVPSLHPSLGPGIGSPLGSPGQLHSPISTLSSPINGMGPPFSVISSPMGPHSMSVPTTPTLGFGTGSPQLNSPMNPVSSTEDIKPPLGLNGVLKVPAHPSGNMASFTKHICAICGDRSSGKHYGVYSCEGCKGFFKRTVRKDLTYTCRDNKDCLIDKRQRNRCQYCRYQKCLAMGMKREAVQEERQRGKDRNENEVESTSSANEDMPVEKILEAELAVEPKTETYVEANMGLNPSSPNDPVTNICQAADKQLFTLVEWAKRIPHFSELPLDDQVILLRAGWNELLIASFSHRSIAVKDGILLATGLHVHRNSAHSAGVGAIFDRVLTELVSKMRDMQMDKTELGCLRAIVLFNPDSKGLSNPAEVEALREKVYASLEAYCKHKYPEQPGRFAKLLLRLPALRSIGLKCLEHLFFFKLIGDTPIDTFLMEMLEAPHQAT
# partner: B1 partner
# Variants of: B1
# Conditions: with med25_human MED25, Q71SY5
row,Variant,effect of a mutation on the interaction
1,M413A,disrupting interaction
2,L414A,disrupting interaction

# Variants of: B1
# Conditions: with med25_human MED25, Q71SY5
# Remark: another data set of the same source
row,Variant,effect of a mutation on the interaction
1,L409A,disrupting interaction
2,I410A,disrupting interaction

# Variants of: B1
# Conditions: with med25_human MED25, Q71SY5
# Remark: another data set of the same source
row,Variant,effect of a mutation on the interaction
1,E412Q,disrupting interaction
2,E415Q,disrupting interaction

# Variants of: B2
# Conditions: with med25_human MED25, Q71SY5
row,Variant,effect of a mutation on the interaction
1,F455A,disrupting interaction

# Variants of: B2
# Conditions: with med25_human MED25, Q71SY5
# Remark: another data set of the same source
row,Variant,effect of a mutation on the interaction
1,M459A,disrupting interaction
2,L460A,disrupting interaction

# Variants of: B2
# Conditions: with med25_human MED25, Q71SY5
# Remark: another data set of the same source
row,Variant,effect of a mutation on the interaction
1,E461Q,decreasing interaction
